The target in assay [1] is T1, HA peptide (XAKLDEESILKQK-FITC, X = H).
T1 construct: also called peptide with N-terminal histidine
T1 peptide: HAKLDEESILKQK(FITC)
In words: fluorescence polarization titration, 20 C. As for the experimental part: (§1) Binding affinity was measured by polarization using a labeled peptide. The polarization response and total intensity measurements were carried out at 20° C. on a microplate fluorometer with 480 nm excitation and 530 nm emission. […] Multiple analyses were performed at increasing recognizer concentration at a fixed concentration of a target peptide to obtain a titration curve. An equilibrium polarization response at each concentration was plotted and fit to calculate the KD.
(§2) Fluorescence polarization assays were performed with all candidates, and single point binding responses were measured at a fixed concentration of the binders (FIG. 13A). […] We carried out multiple polarization binding titration analysis at increasing concentration of binder protein, and the Kds were determined from the titration curves (FIG. 13B).

Assay [2] deals with T2, RA peptide (XAKLDEESILKQK-FITC, X = R).
T2 construct: also called peptide with N-terminal arginine
T2 peptide: RAKLDEESILKQK(FITC)
In words: fluorescence polarization titration, 20 C. As for the experimental part: as §1, §2

Assay [3] has as its target T3, RA peptide (Octet assay of PS621 variants).
T3 construct: X… with X = R
The experiment in a line: Octet (BLI), 30 C. The source says: (§3) Peptides of the sequence RXKLDEESILKQK (SEQ ID NO: 1076) were also used to evaluate the penultimate residue effect.
For orientation: In BLI a coated tip is dipped into the sample, and binding shifts an interference pattern.

Assay [4] addresses T4, RL peptide (Octet assay of PS621 variants).
T4 construct: RXKLDEESILKQK with X = L
T4 peptide: RLKLDEESILKQK
The experiment in a line: Octet (BLI), 30 C.
Excerpt: as §3

The target of assay [5] is T5, KA peptide (Octet assay of PS621 variants).
T5 construct: XAKLDEESILKQK with X = K
T5 peptide: KAKLDEESILKQK
In words: Octet (BLI), 30 C.

In assay [6] the target is T6, HA peptide (Octet assay of PS621 variants).
T6 construct: XAKLDEESILKQK with X = H
T6 peptide: HAKLDEESILKQK
In words: Octet (BLI), 30 C.

In assay [7] the target is T7, RQ peptide (Octet assay of PS621 variants).
T7 construct: RX… with X = Q
The experiment in a line: Octet (BLI), 30 C.
Excerpt: as §3

Assay [8] has as its target T8, RE peptide (Octet assay of PS621 variants).
T8 construct: RXKLDEESILKQK with X = E
T8 peptide: REKLDEESILKQK
The experiment in a line: Octet (BLI), 30 C.
Excerpt: as §3

The target of assay [9] is T9, RR peptide (Octet assay of PS621 variants).
T9 construct: RX… with X = R
The experiment in a line: Octet (BLI), 30 C.
Excerpt: as §3

Assay [10] has as its target T10, RS peptide (Octet assay of PS621 variants).
T10 construct: RXKLDEESILKQK with X = S
T10 peptide: RSKLDEESILKQK
The experiment in a line: Octet (BLI), 30 C.
Excerpt: as §3

Assay [11] addresses T11, RF peptide (Octet assay of PS621 variants).
T11 construct: RX… with X = F
The experiment in a line: Octet (BLI), 30 C.
Excerpt: as §3

For a further assay, the target named is T12, AA peptide.
T12 construct: The peptide was coated on the Octet sensor; also called peptide with N-terminal alanine and penultimate alanine
The experiment in a line: BLI (Octet), peptide on sensor, purified protein in solution. The source says:
(§4) In the high-throughput assay, Octet sensors are coated with the peptide of interest and dipped in buffer containing the purified protein. An approximation of relative binding can be obtained by comparing the response after 200 seconds for each protein. Each protein has approximately the same molecular mass and is used at the same concentration, so ranking the proteins by response level in this assay gives an approximation of which proteins have improved binding. Studying the on and off-rate can also give insight into the mechanism of binding.

The next assay concerns the target T13, VA peptide.
T13 construct: The peptide was coated on the Octet sensor; also called peptide with N-terminal valine and penultimate alanine
The assay is described as above.
Excerpt: as §4

In another assay the target is T14, LA peptide.
T14 construct: The peptide was coated on the Octet sensor; also called peptide with N-terminal leucine and penultimate alanine
The assay is described as above.
Excerpt: as §4

Assay [12] has as its target T15, MA Peptide (fluorescence polarization).
T15 peptide: MAKLDEESILKQK(FITC)
In words: fluorescence polarization, FITC peptide titrated with protein.

Assay [13] addresses T16, AA Peptide (fluorescence polarization), AAKLDEESILKQ{LYS(FITC)}.
T16 peptide: AAKLDEESILKQK(FITC)
The assay is described as above.

No end group written: not given here. *: point of attachment. FITC = O=C1OC2(c3ccc(O)cc3Oc3cc(O)ccc32)c2ccc(NC(=S)*)cc21

B1: PS1104 (designed binder)
chain: MHSKFSHAGRICGAKFKVGEPIYRCKECSFDDTCVLCVNCFNPKDHRGHHVYTTICTEFNNGICDCGDKEAWNHTLFCKAEEG
notes: PS621 variant
For orientation: Kd means the equilibrium constant for the complex coming apart. On to B1, for which the Kd in assay [1] is 2.85 µM; in [2], 260 nM.

B2: PS1115 (designed binder)
chain: MHSKFSHAGRICGAKFKVGEPIYRCKECSFDDTCVLCVNCFNPKDHRGHHVYTTICTERNNGICDCGDKEAWNHELFCKAEEG
notes: PS621 variant
In the case of B2, the Kd in [1] turned out to be 1.92 µM; in assay [2], 152 nM.

B3: PS1121 (designed binder)
chain: MHSKFSHAGRICGAKFKVGEPIYRCKECSFDDTCVLCVNCFNPKDHKGHHVYTTICTEFNNGICDCGDKEAWNHTLFCKAEEG
notes: PS621 variant
As to B3, the results for the Kd in [1] and in assay [2] were 3.5 µM and 259 nM, respectively.

B4: PS1119 (designed binder)
chain: MHSKFSHAGRICGAKFKVGEPIYRCKECSFDDTCVLCVNCFNPKDHTGHHVYTTICKEFNNGICDCGDKEAWNHTLFCKAEEG
notes: Variant of PS621
Turning to B4, the Octet response in assay [3] was 8.6; in assay [4] it was 9.6; in assay [5] it was 3.3; in [6], 0.7. In addition, the Kd in [1] was 11.4 µM; in [2] it was 289 nM.

B5: PS1106 (designed binder)
chain: MHSKFSHAGRICGAKFKVGEPIYRCKECSFDDTCVLCVNCFNPKDHTGHHVYVTICTEFNNGICDCGDKEAWNHTLFCKAEEG
notes: PS621 variant
With B5, the dissociation constant (Kd) is 3.44 µM in assay [1] and 165 nM in assay [2].

B6: PS1118 (designed binder)
chain: MHSKFSHAGRICGAKFKVGEPIYRCKECSFDDTCVLCVNCFNPKDHTGHHVYTTICTKFNNGICDCGDKEAWNHTLFCKAEEG
notes: Variant of PS621
B6: the Octet response in assay [3] was found to be 9.8; in [4], 10.6; in [5] it was 5; in [6], 1.8. The Kd in assay [1] stood at 6.18 µM; in assay [2] it was 271 nM.

B7: PS1107 (designed binder)
chain: MHSKFSHAGRICGAKFKVGEPIYRCKECSFDDTCVLCVNCFNPKDHTGHHVYTTICREFNNGICDCGDKEAWNHTLFCKAEEG
notes: Variant of PS621
As for B7, the Octet response was 7.8 in assay [3], 8.1 in [4], 3.9 in assay [5] and 0.6 in assay [6]. Besides, the figures for the dissociation constant (Kd) in assay [1] and in assay [2] were 3.83 µM and 298 nM, respectively.

B8: PS1105 (designed binder)
chain: MHSKFSHAGRICGAKFKVGEPIYRCKECSFDDTCVLCVNCFNPKDHTRHHVYTTICTEFNNGICDCGDKEAWNHTLFCKAEEG
notes: Variant of PS621
Regarding B8, the Octet response in assay [7] was found to be 5.9; in [8] it was 2.9; in assay [3], 6.5; in assay [4], 7.5; in assay [9], 4.4; in assay [10] it was 5.5. Besides, the Octet response amounted to 7.2 in [11], 2.6 in assay [5] and 0.2 in assay [6].

B9: PS1114 (designed binder)
chain: MHSKFSHAGRICGAKFKVGEPIYRCKECSFDDTCVLCVNCFNPKDHRGHHVYTTICTERNNGICDCGDKEAWNHTLFCKAEEG
notes: PS621 variant
Consider B9, for which the values for the dissociation constant (Kd) in assay [1] and in [2] were 2.66 µM and 180 nM, respectively.

B10: PS1103 (designed binder)
chain: MHSKFSHAGRICGAKFKVGEPIYRCKECSFDYTCVLCVNCFNPKDHTGHHVYTTICTEFNNGICDCGDKEAWNHTLFCKAEEG
notes: Variant of PS621
For the molecule B10, the Octet response in assay [3] was found to be 6.2; in [4], 8.4; in [5] it was 2.9. Moreover, in assay [2], the Kd is 787 nM.

B11: PS1104 (designed binder)
chain: MHSKFSHAGRICGAKFKVGEPIYRCKECSFDDTCVLCVNCFNPKDHRGHHVYTTICTEFNNGICDCGDKEAWNHTLFCKAEEG
notes: Variant of PS621
On to B11, for which the Octet response in assay [7] was determined as 9.7; in assay [8] it was 7.6; in assay [3] it was 9.4; in assay [4], 11.3; in assay [9], 8; in [10], 8.9. The results for the Octet response in assay [11], in assay [5] and in [6] were 10.5, 7.3 and 3.4, respectively.

B12: PS809 (designed binder)
chain: MPTAASATESAIEDTPAPARPEVDGRTKPKRQPRYHVVLWNDDDHTYQYVVVMLQSLFGHPPERGYRLAKEMDTQGRVIVLTTTREHAELKRDQIHAFGYDRLLARSKGSMKASIEAEE
notes: Variant of PS557; also called V72M
For B12, the “Octet response after 200 sec association” value in the assay with AA peptide came to 0.0226 nm; in the assay with VA peptide, 7.77 nm; with LA peptide it was 10.8 nm.

B13: PS819 (designed binder)
chain: MPTAASATESAIEDTPAPARPEVDGRTKPKRQPRYHVVLWDDDDHTYQYVVVMLQSLFGHPPKRGYRLAKEMDTQGRVIVLTTTREHAELKRDQIHAFGYDRLLARSKGSMKASIEAEE
notes: Variant of PS557; also called V72M, N41D, E63K
Consider B13, for which the “Octet response after 200 sec association” value worked out at 0.519 nm in the assay with AA peptide, 7.42 nm with VA peptide and 11.1 nm in the assay with LA peptide.

B14: PS830 (designed binder)
chain: MPTAASATESAIEDTPAPARPEVDGRTKPKRQPRYHVVLWDDDDHTYQYVVVMLQSLFGHPRKRGYRLAKEMDTLGRVIVLTTTREHAELKRDQIHAFGYDRLLARSKGSMKASIEAEE
notes: Variant of PS557
Turning to B14, the “Octet response after 200 sec association” value was determined as 0.215 nm with AA peptide, 6.64 nm with VA peptide and 8.54 nm with LA peptide.

B15: PS847 (designed binder)
chain: MPTAASATESAIEDTPAPARPEVDGRTKPKRQPRYHVVLWDDDDHTYQYVVVMLRSLFGHPPERGYRLAKEMDTQGRVIVLTTTREHAELKRDQIHAFGYDRLLARSKGSMKASIEAEE
notes: Variant of PS557
For the molecule B15, the results for the “Octet response after 200 sec association” value with AA peptide, in the assay with VA peptide and with LA peptide were 0.288 nm, 6.68 nm and 9.92 nm, respectively.

B16: PS828 (designed binder)
chain: MPTAASATESAIEDTPAPARPEVDGRTKPKRQPRYHVVLWDDDDHTYQYVVVMLQSLFGHPRERGYRLAKEVDTLGRVIVLTTTREHAELKRDQIHAFGYDRLLARSKGSMKASIEAEE
notes: Variant of PS557
For the molecule B16, the “Octet response after 200 sec association” value is 0.469 nm in the assay with AA peptide, 3.24 nm in the assay with VA peptide and 7.75 nm with LA peptide.

B17: PS934 (designed binder)
chain: MPTAASATESAIEDTPAPARPEVDGRTKPKRQPRYHVVLWDDDDHTYQYVVVMLQSLFGHPRERGYRMAKEMDTQGRVIVLTTTREHAELKRDQIHAFGYDRLLARSKGSMKASIEAEE
notes: Variant of PS557; also called N41D, V72M, L68M, P62R
On to B17, for which the results for the Kd in assay [12] and in assay [13] were 325 nM and 5.33 µM, respectively.

B18: PS968 (designed binder)
chain: MPTAASATESAIEDTPAPARPEVDGRTKPKRQPRYHVVLWNDDDHTYQYVVVMLRSLFGHPPERGYRLAKEMDTQGRVIVLTTTREHAELKRDQIHAFGRDRLLARSKGSMKASIEAEE
notes: Variant of PS557; also called V72M, Q55R, Y100R
On to B18, for which the Kd was 395 nM in assay [12] and 5.44 µM in [13].

The values are drawn from US20240272170A1 (QUANTUM SI, published 2024).
